From patent US7211424B1, “Mammalian Subtilisin/kexin isozyme SKI-1: a proprotein convertase with a unique cleavage specificity” (Institut de Recherches Cliniques de Montreal, priority 1999, dated 2007)

Tests used:
[1] = target: T1, peptide I, hproBDNF(50-63)
T1 chain: KAGSRGLTSLADTF

[2] = target: T2, peptide II, hSREBP-2(504-530)
T2 chain: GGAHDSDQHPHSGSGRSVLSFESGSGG

[3] = target: T3, peptide III, hSKI-1(174-191)
T3 chain: WHATGRHSSRRLLRAIPR

[4] = target: T4, peptide IV, hSKI-1 (174-188+LE)
T4 chain: WHATGRHSSRRLLRALE

[5] = target: T5, peptide IX, hSKI-1 (128-142)
T5 chain: PQRKVFRSLKYAESD

[6] = target: T6, peptide V, hSKI-1 (182-188+LE)
T6 chain: SRRLLRALE

[7] = target: T7, peptide VI, hSKI-1 (156-172)
T7 chain: WQSSRPLRRASLSLGSG

[8] = target: T8, peptide VII, hSKI-1 (187-201)
T8 chain: RAIPRQVAQTLQADV

[9] = target: T9, peptide VIII, hSKI-1 (128-136)
T9 chain: PQRKVFRSL

[10] = target: soya bean trypsin inhibitor
[11] = target: T10, peptide (iv) hSKI-1 (181-188+Glu)
T10 chain: SSRRLLRAIE

[12] = target: T11, peptide (x) SREBP-2 10 mer
T11 chain: SGSGRSVLSFES

[13] = target: T12, peptide X, Q-hSKI-1 (132-142): Abz-VFRSLKYAESD-Y(NO2)-A
T12 chain: XVFRSLKYAESDXA

[14] = target: T13, peptide XI, Q-hSKI-1 (134-142): Abz-RSLKYAESD-Y(NO2)-A
T13 chain: XRSLKYAESDXA

[15] = substrate: CC(C)C[C@H](NC(=O)[C@H](CO)NC(=O)[C@H](CCCNC(=N)N)NC(=O)[C@H](Cc1ccccc1)NC(=O)[C@@H](NC(=O)c1ccccc1N)C(C)C)C(=O)N[C@@H](CCCCN)C(=O)N[C@@H](Cc1ccc(O)cc1)C(=O)N[C@@H](C)C(=O)N[C@@H](CCC(=O)O)C(=O)N[C@@H](CO)C(=O)N[C@@H](CC(=O)O)C(=O)N[C@@H](Cc1ccc(O)c([N+](=O)[O-])c1)C(=O)N[C@@H](C)C(N)=O; test: Hydrolysis of quenched fluorogenic substrates by shed-hSKI-1; format: biochemical, human; settings: other: shed-hSKI-1; averages of duplicate assays; pH 6.5; 37.0 °C
Method: (§1) For digestions, each peptide was typically reacted at 37° C. with 10 μl of the concentrated enzyme preparation in a buffer consisting of 50 mM HEPES (N-2-Hydroxyethyl piperazine-N′-2 EthaneSulfonic acid) (ICN Biomedicals Inc), 50 mM MES (2-[N-Morpholino] EthaneSulfonic acid) (Sigma Chem Co.), and 3 mM Ca^2+-acetate (pH 6.5). The digestion products were separated by RP-HPLC on a Beckman 5 μm Ultrasphere C18 column (0.2×25 cm) and eluted with a 1%/min linear gradient of aqueous 0.1% TFA/CH3CN ([…]) at a flow rate of 1 ml/min. The collected peptides were characterized by mass spectrometry and amino acid composition, which was also used to quantitate the amount of various substrates and products. The digestions of the quenched fluorogenic peptides were analyzed by RP-HPLC using a dual UV (210 nm) and fluorescence (excitation and emission wavelengths of 320 and 420 nm, respectively) detector (Rainin).
(§2) Km(app), Vmax(app) and Ki(app) determinations—Following digestion reactions with increasing substrate concentrations, the products were separated by RP-HPLC. The rate of substrate hydrolysis was obtained from the integrated peak areas of the chromatograms. Km(app) and Vmax(app) values were estimated using nonlinear regression analysis (Enzfitter software; Elsevier Biosoft, Cambridge, UK) of plots of the hydrolysis rate vs the substrate concentration. […] The Ki(app) values were estimated from Dixon plots as described (16). For the two quenched peptides, kinetic parameters were determined as described (17).

[16] = substrate: CC(C)C[C@H](NC(=O)[C@H](CO)NC(=O)[C@H](CCCNC(=N)N)NC(=O)c1ccccc1N)C(=O)N[C@@H](CCCCN)C(=O)N[C@@H](Cc1ccc(O)cc1)C(=O)N[C@@H](C)C(=O)N[C@@H](CCC(=O)O)C(=O)N[C@@H](CO)C(=O)N[C@@H](CC(=O)O)C(=O)N[C@@H](Cc1ccc(O)c([N+](=O)[O-])c1)C(=O)N[C@@H](C)C(N)=O; test: as above; format: biochemical, human; settings: other: shed-hSKI-1; averages of duplicate assays; pH 6.5; 37.0 °C
Method: as §1, §2

B1: BTMD-SKI-1 (protein)
chain: RAIPRQVAQTLQADVLWQMGYTGANVRVAVFDTGLSEKHPHFKNVKERTNWTNERTLDDGLGHGTFVAGVIASMRECQGFAPDAELHIFRVFTNNQVSYTSWFLDAFNYAILKKIDVLNLSIGGPDFMDHPFVDKVWELTANNVIMVSAIGNDGPLYGTLNNPADQMDVIGVGGIDFEDNIARFSSRGMTTWELPGGYGRMKPDIVTYGAGVRGSGVKGGCRALSGTSVASPVVAGAVTLLVSTVQKRELVNPASMKQALIASARRLPGVNMFEQGHGKLDLLRAYQILNSYKPQASLSPSYIDLTECPYMWPYCSQPIYYGGMPTVVNVTILNGMGVTGRIVDKPDWQPYLPQNGDNIEVAFSYSSVLWPWSGYLAISISVTKKAASWEGIAQGHVMITVASPAETESKNGAEQTSTVKLPIKVKIIPTPPRSKRVLWDQYHNLRYPPGYFPRDNLRMKNDPLDWNGDHIHTNFRDMYQHLRSMGYFVEVLGAPFTCFDASQYGTLLMVDSEEEYFPEEIAKLRRDVDNGLSLVIFSDWYNTSVMRKVKFYDENTRQWWMPDTGGANIPALNELLSVWNMGFSDGLYEGEFTLANHDMYYASGCSIAKFPEDGVVITQTFKDQGLEVLKQETAVVENVPILGLYQIPAEGGGRIVLYGDSNCLDDSHRQKDCFWLLDALLQYTSYGVTPPSLSHSGNRQRPPSGAGSVTPERMEGNHLHRYSKVLEAHLGDPKPRPLPACPRLSWAKPQPLNETAPSNLWKHQKLLSIDLDKVVLPNFRSNRPQVRPLSPGESGAWDIPGGIMPGRYNQEHHHHHH
Hydrolysis of SREBP-2 peptide (% of control) at 0.01 mM cystatin (cystatin): 100 % of control
Km(app) [1]: 169 µM
Vmax(app) [1]: 0.4 nmol/h
Vmax(app)/Km(app) [1]: 0.002 h^-1L^-1
cleavage of synthetic peptide (RP-HPLC, MALDI-TOF) [1]: The expected cleavages were confirmed and did not occur using WT-/empty vector-derived media
Km(app) [2]: 124 µM
Vmax(app) [2]: 0.5 nmol/h
Vmax(app)/Km(app) [2]: 0.004 h^-1L^-1
cleavage of synthetic peptide (RP-HPLC, MALDI-TOF) [2]: The expected cleavages were confirmed and did not occur using WT-/empty vector-derived media
cleavage of synthetic peptide (RP-HPLC, mass spectrometry) [3]: the only one with detectable cleavage by SKI-1-containing concentrated medium ... was peptide III
Km(app) [4]: 17 µM
Vmax(app) [4]: 0.4 nmol/h
Vmax(app)/Km(app) [4]: 0.023 h^-1L^-1
Vmax(app)/Km(app) relative to peptides I and II [4]: 5-10-fold higher than those obtained with peptides I and II
cleavage of synthetic peptide [4]: this change significantly improved the processing of these peptides
cleavage of synthetic peptide at K137↓ [5]: the PQRKVFRSLK^137↓YAESD (SEQ. ID. NO. 45) cleavage was only seen in SKI-1-containing medium
Km(app) [6]: 109 µM
Vmax(app) [6]: 1.1 nmol/h
Vmax(app)/Km(app) [6]: 0.01 h^-1L^-1
catalytic efficiency relative to peptide IV [6]: caused a 4-fold reduction in catalytic efficiency
cleavage of synthetic peptide [6]: this change significantly improved the processing of these peptides
difference in Vmax(app)/Km(app) between peptides IV and V [6]: 2 fold
cleavage of synthetic peptide [7]: ^1No cleavage detected even with a 10-fold excess of enzyme.
cleavage of synthetic peptide [8]: ^1No cleavage detected even with a 10-fold excess of enzyme.
cleavage of synthetic peptide [9]: ^2Cleavage detected but not attributable to SKI-1.
Hydrolysis of SREBP-2 peptide (% of control) at 0.5 mg/ml SBTI [10]: 100 % of control

B2: shed-hSKI-1 (Homo sapiens) (protein)
chain: RAIPRQVAQTLQADVLWQMGYTGANVRVAVFDTGLSEKHPHFKNVKERTNWTNERTLDDGLGHGTFVAGVIASMRECQGFAPDAELHIFRVFTNNQVSYTSWFLDAFNYAILKKIDVLNLSIGGPDFMDHPFVDKVWELTANNVIMVSAIGNDGPLYGTLNNPADQMDVIGVGGIDFEDNIARFSSRGMTTWELPGGYGRMKPDIVTYGAGVRGSGVKGGCRALSGTSVASPVVAGAVTLLVSTVQKRELVNPASMKQALIASARRLPGVNMFEQGHGKLDLLRAYQILNSYKPQASLSPSYIDLTECPYMWPYCSQPIYYGGMPTVVNVTILNGMGVTGRIVDKPDWQPYLPQNGDNIEVAFSYSSVLWPWSGYLAISISVTKKAASWEGIAQGHVMITVASPAETESKNGAEQTSTVKLPIKVKIIPTPPRSKRVLWDQYHNLRYPPGYFPRDNLRMKNDPLDWNGDHIHTNFRDMYQHLRSMGYFVEVLGAPFTCFDASQYGTLLMVDSEEEYFPEEIAKLRRDVDNGLSLVIFSDWYNTSVMRKVKFYDENTRQWWMPDTGGANIPALNELLSVWNMGFSDGLYEGEFTLANHDMYYASGCSIAKFPEDGVVITQTFKDQGLEVLKQETAVVENVPILGLYQIPAEGGGRIVLYGDSNCLDDSHRQKDCFWLLDALLQYTSYGVTPPSLSHSGNRQRPPSGAGSVTPERMEGNHLHRYSKVLEAHLGDPKPRPLPACPRLSWAKPQPLNETAPSNLWKHQKLLSIDLDKVVLPNFRSNRPQVRPLSPGESGAWDIPGGIMPGRYNQEV
notes: SKI-1 is further processed to remove the transmembrane domain that keeps it integrated in the ER membrane, which generates a SKI-1 soluble form; made in house; host or cells: HK293 cells stably transfected with full-length hSKI-1 in pcDNA3; shed enzyme in the medium
cleavage of synthetic peptide (iv): efficiently cleaved [11]: only the peptides (iii), (iv), (vii), (viii) (ix) and (x) are efficiently cleaved by the recombinant SKI-1
cleavage of synthetic peptide (x): efficiently cleaved [12]: only the peptides (iii), (iv), (vii), (viii) (ix) and (x) are efficiently cleaved by the recombinant SKI-1
cleavage of synthetic peptide (viii): efficiently cleaved [1]: only the peptides (iii), (iv), (vii), (viii) (ix) and (x) are efficiently cleaved by the recombinant SKI-1
cleavage of synthetic peptide (ix): efficiently cleaved [2]: only the peptides (iii), (iv), (vii), (viii) (ix) and (x) are efficiently cleaved by the recombinant SKI-1
cleavage of synthetic peptide (ii): not efficiently cleaved [3]: only the peptides (iii), (iv), (vii), (viii) (ix) and (x) are efficiently cleaved by the recombinant SKI-1
cleavage of synthetic peptide (iii): efficiently cleaved [4]: only the peptides (iii), (iv), (vii), (viii) (ix) and (x) are efficiently cleaved by the recombinant SKI-1
cleavage of synthetic peptide (vii): efficiently cleaved [5]: only the peptides (iii), (iv), (vii), (viii) (ix) and (x) are efficiently cleaved by the recombinant SKI-1
cleavage of synthetic peptide (i): not efficiently cleaved [7]: only the peptides (iii), (iv), (vii), (viii) (ix) and (x) are efficiently cleaved by the recombinant SKI-1
cleavage of synthetic peptide (v): not efficiently cleaved [8]: only the peptides (iii), (iv), (vii), (viii) (ix) and (x) are efficiently cleaved by the recombinant SKI-1
cleavage of synthetic peptide (vi): not efficiently cleaved [9]: only the peptides (iii), (iv), (vii), (viii) (ix) and (x) are efficiently cleaved by the recombinant SKI-1
kinetic parameters (Vmax/Km) relative to quenched peptide (b) [13]: this peptide is 6-fold more efficient that the nearest candidate quenched peptide (b)
cleavage of quenched fluorogenic peptide (HPLC with UV and fluorescence detection) [14]: clearly revealed a single site of cleavage in peptides (a) and (b)
Km [15]: 31.3 µM
Vmax [15]: 0.567 µmol/min
Km [16]: 8.7 µM
Vmax [16]: 0.948 µmol/min
